Laboratory results: patent EP4053153A1

What was measured:
[1] = biological target: human transferrin receptor (human) (UniProt P02786); experiment: MST (Monolith NT.115); His-tag-dye-labelled protein, TfR titrated
[2] = biological target: mouse transferrin receptor (mouse) (UniProt Q62351); experiment: as above
Chain of mouse transferrin receptor (mouse) (Q62351 89-763 limits assumed): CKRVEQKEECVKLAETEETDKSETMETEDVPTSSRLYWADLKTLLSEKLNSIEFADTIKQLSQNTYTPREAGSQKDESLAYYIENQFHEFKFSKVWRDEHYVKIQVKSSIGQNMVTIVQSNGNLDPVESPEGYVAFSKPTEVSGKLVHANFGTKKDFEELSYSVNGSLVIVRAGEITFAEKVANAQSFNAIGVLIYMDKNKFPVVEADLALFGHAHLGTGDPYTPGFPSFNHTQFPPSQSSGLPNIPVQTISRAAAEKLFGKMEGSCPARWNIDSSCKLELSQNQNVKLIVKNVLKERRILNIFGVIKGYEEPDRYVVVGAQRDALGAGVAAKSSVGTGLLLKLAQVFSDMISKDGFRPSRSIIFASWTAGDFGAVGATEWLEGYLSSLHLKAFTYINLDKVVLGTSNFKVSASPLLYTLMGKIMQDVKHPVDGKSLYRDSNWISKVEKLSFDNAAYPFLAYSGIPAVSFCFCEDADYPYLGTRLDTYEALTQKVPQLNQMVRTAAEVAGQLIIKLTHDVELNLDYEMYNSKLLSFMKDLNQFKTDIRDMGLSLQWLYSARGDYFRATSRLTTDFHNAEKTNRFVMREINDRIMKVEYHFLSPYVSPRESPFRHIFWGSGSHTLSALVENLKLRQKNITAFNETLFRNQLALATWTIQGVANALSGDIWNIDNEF

Chain of human transferrin receptor (human) (P02786 89-760 limits assumed): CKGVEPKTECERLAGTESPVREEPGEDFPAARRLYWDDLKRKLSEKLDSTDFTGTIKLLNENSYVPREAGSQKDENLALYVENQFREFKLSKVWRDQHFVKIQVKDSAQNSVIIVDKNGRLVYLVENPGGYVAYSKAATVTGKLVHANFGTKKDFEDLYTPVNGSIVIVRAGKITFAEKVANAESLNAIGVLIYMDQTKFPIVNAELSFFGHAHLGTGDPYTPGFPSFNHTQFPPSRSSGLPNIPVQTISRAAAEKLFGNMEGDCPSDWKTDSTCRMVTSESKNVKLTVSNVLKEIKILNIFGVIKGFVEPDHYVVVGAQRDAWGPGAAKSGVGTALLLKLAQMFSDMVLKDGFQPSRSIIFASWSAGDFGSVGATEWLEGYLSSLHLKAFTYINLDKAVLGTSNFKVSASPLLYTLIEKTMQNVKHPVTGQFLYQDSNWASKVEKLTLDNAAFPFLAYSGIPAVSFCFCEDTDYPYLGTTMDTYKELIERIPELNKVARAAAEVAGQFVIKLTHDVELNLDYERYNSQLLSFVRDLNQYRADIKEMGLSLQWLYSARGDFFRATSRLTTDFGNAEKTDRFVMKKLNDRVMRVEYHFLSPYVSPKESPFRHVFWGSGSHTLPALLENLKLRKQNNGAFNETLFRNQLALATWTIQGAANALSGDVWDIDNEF

Substance	Kd [1]	Kd [2]
DE-gp100-huHF (from UniProt P02794 1-183)	9.78 nM	30.5 nM
N-AH1-huHF (from UniProt P02794 1-183)	84.6 nM	–
N-gp100-huHF (from UniProt P02794 1-183)	18.5 nM	48.3 nM
